Results: patent US20170022287A1 (Chugai, published 2017)

Columns and labels:
[1] = target: T1, mouse Fcγ receptor II extracellular domain with C-terminal His tag (mouse, UniProt P08101 30-210); test: SPR (Biacore) kinetics, antibody captured on Protein L, mFcγR as analyte, 1:1 Langmuir model
T1 construct: extracellular domain; also called mFcγRII; mFcgRII; not shown: His tag at the C terminus
T1 sequence (looked up): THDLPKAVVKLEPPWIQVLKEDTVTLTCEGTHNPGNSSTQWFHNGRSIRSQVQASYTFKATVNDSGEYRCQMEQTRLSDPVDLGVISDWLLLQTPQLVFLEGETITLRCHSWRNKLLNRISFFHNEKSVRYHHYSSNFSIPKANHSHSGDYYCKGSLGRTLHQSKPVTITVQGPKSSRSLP

[2] = target: T2, mouse Fcγ receptor III extracellular domain with C-terminal His tag (mouse, UniProt P08508 31-215); test: as above
T2 construct: extracellular domain; also called mFcγRIII; not shown: His tag at the C terminus
T2 sequence (looked up): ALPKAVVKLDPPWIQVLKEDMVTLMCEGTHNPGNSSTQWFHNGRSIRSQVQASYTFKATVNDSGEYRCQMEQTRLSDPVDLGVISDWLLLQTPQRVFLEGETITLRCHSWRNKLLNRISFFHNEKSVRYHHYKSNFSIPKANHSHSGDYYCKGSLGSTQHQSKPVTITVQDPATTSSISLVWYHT

[3] = target: T1, mouse Fcγ receptor II extracellular …; test: SPR (Biacore); against naturally-occurring mIgG1 (H237-mIgG1/MRAL-k0)
Protocol: (§1) The interaction between each modified antibody and the Fcγ receptor prepared as mentioned above was analyzed using Biacore T100 (GE Healthcare), Biacore T200 (GE Healthcare), Biacore A100, and Biacore 4000. The running buffer used was HBS-EP+(GE Healthcare) and the measurement temperature was set to 25° C. The chip used was: a Series S Sensor Chip CM5 (GE Healthcare) or Series S Sensor Chip CM4 (GE Healthcare) to which Protein L (ACTIGEN or BioVision) was immobilized by the amine coupling method. Antibodies of interest were captured onto these sensor chips, and mFcγR diluted with the running buffer was allowed to interact with them. The amount bound by the antibodies was measured and compared between the antibodies. However, since the amount of mFcγR bound depends on the amount of the captured antibody, the comparison was carried out on corrected values obtained by dividing the amount of bound mFcγR by the amount of each antibody captured. Furthermore, 10 mM glycine-HCl, pH 1.5 was reacted to wash out the captured antibody from the sensor chips, and the sensor chip was regenerated and used repeatedly. Kinetic analyses for calculating the KD values of each altered antibody to FcγR were performed according to the method below. […] From those values, the dissociation constant KD (mol/L) was determined.

[4] = target: T2, mouse Fcγ receptor III extracellular …; test: as above
Protocol: as §1

B1: H237-MB492/MRAL-k0 (antibody, mouse IgG1, kappa)
heavy: QVQLQESGPGLVKPSETLSLTCAVSGHSISHDHAWSWVRQPPGEGLEWIGFISYSGITNYNPSLQGRVTISRDNSKNTLYLQMNSLRAEDTAVYYCARSLARTTAMDYWGEGTLVTVSSAKTTPPSVYPLAPGSAAQTNSMVTLGCLVKGYFPEPVTVTWNSGSLSSGVHTFPAVLQSDLYTLSSSVTVPSSTWPSETVTCNVAHPASSTKVDKKIVPRDCGCKPCICEPNEVEDVFIFPPKPKDVLTITLTPKVTCVVVDISKDDPEVQFSWFVDDVEVHTAQTQPREEQFNSTFRSVSELPIMHQDWLNGKEFKCRVDSAAFPAPIEKTISKTKGRPKAPQVYTIPPPKEQMAKDKVSLTCMITDFFPEDITVEWQWNGQPAENYKNTQPIMDTDGSYFVYSKLNVQKSNWEAGNTFTCSVLHEGLHNHHTEKSLSHSPGK
light: not shown
notes: Mouse IgG1 constant region variant MB492 (T230E, V231P, P232N, S238E, S239D, N324D, as described for 1D8VH-MB492); copies: 2 + 2
Kd [1]: 0.338 nM
Kd [2]: 25.8 nM
Relative binding activity [3]: 622 fold (mIgG1 = 1)
Relative binding activity [4]: 10.9 fold (mIgG1 = 1)
